US20250340661A1, “ANTI CD40 ANTIBODY, ANTIGEN BINDING FRAGMENT AND MEDICAL USE THEREOF” (Jiangsu Hengrui Pharmaceuticals Co., Ltd., priority 2021, published 2025)

Experiments:
CD40 [1] = target: T1, CD40 (Homo sapiens, UniProt P25942); assay: FACS binding of human-rabbit chimeric anti-CD40 antibodies to Raji cells
Description: Raji cells are of a tumor cell line that overexpresses human CD40. 2E5 Raji cells were inoculated onto a 96-well plate. 100 μL of a test antibody was added, with the highest final concentration of 100 nM. The antibody was 5-fold diluted to 8 concentrations. The plate was incubated at 4° C. for 1 h. The plate was washed once with wash buffer, and an AF647-conjugated anti-human IgG antibody (Jackson Immunoresearch Laborotories, Cat. #205-609-088) was added at a dilution ratio of 1:500. The plate was incubated at 4° C. for 30 min. The plate was washed once with wash buffer, and fluorescence intensity was measured using a flow cytometer. The binding EC50 values of the anti-CD40 antibodies for CD40 were calculated. The anti-CD40 antagonistic antibody CFZ533 (i.e., iscalimab, Nova) was used as a positive control, and the heavy and light chain variable region sequences were derived from sequence 5 and sequence 2 of U.S. Pat. No. 8,277,810B, respectively.

[2] = system: human CD40 transgenic mice; assay: Mouse T cell-dependent humoral immune response (TDAR) model; format: in vivo; conditions: 0.3 mpk BIW ip (IgG1 control 1 mg/kg per Table 15); serum ELISA
Description: On day 0 of the experiment, one of the mice in each group was subjected to blood collection followed by intraperitoneal injection. On day 1, each mouse was intraperitoneally injected with 50 μg of KLH (KLH:complete Freund's adjuvant (CFA)=1:1 emulsified immune complex) for immunization. On day 15 of the experiment, each mouse was intraperitoneally injected with 50 μg of KLH (KLH:incomplete Freund's adjuvant (IFA)=1:1 emulsified immune complex) for a second immunization. Each group was intraperitoneally injected twice a week, and blood samples of about 150 μL were collected from the orbital venous plexus on days 7, 14, 21, and 28. Whole blood was left to stand at room temperature for 1-4 h and centrifuged at 7000 rpm at 4° C. for 10 min to separate serum, and the serum was stored at −80° C. before use.
Mouse serum was separated weekly and assayed by ELISA for the anti-KLH specific IgG level.

CD40 [3] = target: T1, CD40; assay: HEK-Blue CD40L reporter gene cell activity of humanized anti-CD40 antibodies; format: cell-based; parameters: host or cells: HEK-Blue CD40L cells; conditions: read-out: IC50 inhibition of CD40 reporter gene cell activity
Description: HEK-Blue CD40L cells were purchased from Invivogen (Cat. #hkb-cd40). The cells were stably transfected with the human CD40 gene and the NF-kB-mediated SEAP genome. The activation level of the CD40 signaling pathway can be characterized by measuring the amount of secreted SEAP in the supernatant using QUANTI-Blue, the substrate of SEAP. In the assays, the inhibitory effects of the CD40 antagonistic antibodies on the CD40L-induced HEK-Blue CD40L cell activation were measured, and the in vitro cell activity of the CD40 antagonistic antibodies was assessed based on IC50. HEK-Blue CD40L cells were cultured in a DMEM medium containing 10% FBS, 100 μg/mL Normocin, 100 μg/mL Zeocin and 30 μg/mL Blasticidin, with 2-3 passages a week. HEK-Blue CD40L cells were plated at 5E4/well into a 96-well cell culture plate (the medium was DMEM, 10% FBS, 100 μg/mL Normocin) and incubated overnight. […] CD40L-his (R&D, 2706-CL-025) and anti-His antibody (R&D, MAB050-500) were added, and the plate was incubated overnight. After cell centrifugation, 20 μL of the cell supernatant was transferred to a new 96-well white plate, and 180 μL of QUANTI-Blue substrate solution was added. The plate was incubated in the dark for 15 min. The absorbance at 620 nm was measured with an Envision microplate reader, and IC50 values were calculated and used to assess the in vitro cell activity of the CD40 antagonistic antibodies.

CD40 [4] = target: T1, CD40; assay: B cell activation assay system (human PBMCs, CD40L stimulation); format: cell-based; parameters: endogenous in cells; host or cells: human PBMCs (CD19+ B cells read out); conditions: CD40L-his + anti-His overnight
Description: CD40 is highly expressed in B cells, and CD40L, upon binding to CD40, can induce B cell activation and up-regulate the expression of a series of activation markers. CD40 antagonistic antibodies block the binding of CD40L to CD40, thereby eliminating the immune activation process of B cells.
Human PBMCs were plated at 2E5/well, 50 μL/well into a 96-well cell culture plate (the medium was RPMI-1640, 10% FBS, 1% penicillin-streptomycin). Serially diluted test antibodies were added at 50 μL/well, and the cells were co-incubated at 37° C. in 5% CO2 for 0.5 h. CD40L-his and an anti-His antibody were added to each well for overnight stimulation. The following day, the plate was centrifuged, the supernatant was removed, and the cells were washed twice with FACS buffer and stained at room temperature for 15 min with 100 μL of Fixable viability dye EF780 (Invitrogen, 65086514) diluted at 1:1000. The cells were washed twice and then blocked at room temperature for 10 min with 100 μL of human Fc blocker (BD, 564220) diluted at 1:200. After centrifugation, the cells were incubated at 4° C. for 0.5 h with flow cytometry antibodies (PerCP/Cyanine5.5 anti-human CD19 (Biolegend, 302230), and APC anti-human CD69 (Biolegend, 310910)) diluted at 1:200. After centrifugation, the supernatant was removed, the cells were washed twice with FACS buffer and then resuspended in 200 μL of PBS, and the fluorescence intensity on the cell surface was measured by flow cytometry (BD FACS Celesta).
With reference to the method in Example 10, the inhibitory activity of the anti-CD40 antibodies 2F12-L4H2-AAYTE and 9E6-L4H2-AAYTE, which carry the AAYTE mutation in the Fc, in the B cell activation assay system was measured.

T1 sequence (P25942 21-277): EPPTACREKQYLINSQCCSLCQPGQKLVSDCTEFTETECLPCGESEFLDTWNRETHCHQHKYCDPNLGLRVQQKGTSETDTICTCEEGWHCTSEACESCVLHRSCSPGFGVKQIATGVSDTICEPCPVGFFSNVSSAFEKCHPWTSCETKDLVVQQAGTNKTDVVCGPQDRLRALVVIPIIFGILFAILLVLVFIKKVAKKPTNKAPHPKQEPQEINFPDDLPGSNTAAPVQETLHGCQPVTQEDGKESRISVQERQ

## CFZ533: anti-CD40 antagonistic antibody (iscalimab), positive control; variable regions from U.S. Pat. No. 8,277,810B [reference compound]
CD40 [1]
  EC50: 2.41 nM
[2]
  anti-KLH specific IgG level, Day 7: 0.04 ± 0.01
  anti-KLH specific IgG level, Day 14: 30.9 ± 10.8
  anti-KLH specific IgG level, Day 21: 845 ± 423
  anti-KLH specific IgG level, Day 28: 3043 ± 1600
CD40 [3]; Assay 1
  IC50: 0.36 nM
CD40 [3]; Assay 2
  IC50: 0.35 nM
CD40 [4]
  CD19+CD69+ % Maximum inhibition rate: 95%
  CD19+CD69+ MFI Maximum inhibition rate: 110%
CD40 [4]; read-out: CD19+CD69+ % IC50
  IC50: 0.14 nM
CD40 [4]; read-out: CD19+CD69+ MFI IC50
  IC50: 0.07 nM
